Results taken from the nanobody polyreactivity screen of Harvey et al. (2022).

assay: yeast display, Sf9 membrane polyspecificity reagent, FACS + sequencing; frameworks hold sequencing errors
In short: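 Polyreactivity labels are assigned by the sorting gate from which each nanobody was recovered. The gates were low and high (top ~1%), set on anti-HA fluorescence for expression and streptavidin fluorescence for reagent binding. Before sorting, galactose-induced (36–48 hours) yeast display cells were stained for 1 hour at 4 °C with 10% biotinylated, detergent-solubilized Sf9 membrane reagent.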

Sequence | polyreactivity (PSR sort gate)
QVQLVESGGGLVQAGGSLRLSCATSGRTYVPAMGWYRQAPGKERALVAAITSSGITYYADSVKGRVTISRDNAKNTVYLQMNSLNPEDTAVYYCATSYSNRWGWKYNYWGQGTQVTVSS | high polyreactivity
QVQLVESGGGLVQAGGSLRLSCATSGYTFTRYAMGWYRQAPGKERELVASISKTGGITYYADSVKGRFTISRDNAKNTVYLQMNSLKPEDTAVYYCNAVSKRRWAKYDYWGQGTQVTVSS | high polyreactivity
QVQLVESGGGLVQAGGSLRLSCATYAMGWSRQAPGKERELVASIRSGSTYYADSVKGRFTISRDNAKNTVYLQMNSLKPEDTAVYYCAAYEIYYEFDSWGQGTQVTVSS | low polyreactivity
QVQLVESGGGLVQAGGSLRLSCDASAYIFVYNVMGWYRQAHGKERELVAAITSGGSTNYADSVKGRFTISRDNAKNTVYLQMNSLKPEDTAVYYCNAQFDLTFRGTGDYWGQGTQVTVSS | low polyreactivity
QVQLVESGGGLVQAGGSLRLSCDASGFIFDHNAMGWYRQAPGKERELVAAISWGYGSTYYADSVKGRFTISRDNAKNTVYLQMNRLKTEDTAVYYCAARAVRYYAWVRGGCTSFDYWGQGTQVTVSS | high polyreactivity
QVQLVESGGGLVQAGGSLRLSCDASGFIFLGNAMGWYRQAPGKERELVAAISSGGSTYADSVKGRFTISRDNAKNTVYLQMNSLKPEDTSVYYCAVERAFRAQNYHEYDYWGQGTQVTVSS | low polyreactivity
QVQLVESGGGLVQAGGSLRLSCDASGFTFIRNGMGWYRQAPGKERELVAAINSRGGNTYYADSVKGRFTISRDNAKNTVYLQMNSLKPEDTAVYYCNRVVQRWSTQYGYWGQGTQVTVSS | high polyreactivity
QVQLVESGGGLVQAGGSLRLSCDASGFTFTAYAMGSYRQAPGKERELVAAINWSGSRTYYADSVKGRFTISRDNAKNTVYLQMNSLNPEDTAVYYCAAGWTSSRYDYWGQGTQVTVSS | high polyreactivity
QVQLVESGGGLVQAGGSLRLSCDASGFTFYGNAMGWYRQAPGKERELVAAISGRGGSTYYADSVKGRFTISRDNAKNTVYLQMNSLKPEDTAVYYCAIYVSWPLYYYWGQGTQVTVSS | low polyreactivity
QVQLVESGGGLVQAGGSLRLSCDASGFTIYRYAMGWYRQAPGKERELVAAISSGGGSTYYADSVKGRFTISRDNAKNTVYLQMYILKPEDNAVYYCNAQGFIYYWLRYDYWGQGTQVTVSS | high polyreactivity
QVQLVESGGGLVQAGGSLRLSCDASGLIFGPYTMGWYRQAPGKERELVAAISYGGVSTYYADSVKGRFTISRDNAKNTVYLQMNSLNPEDTAVYYCARGDSTRVIRPSAREYDYWGQGTQVTVSS | low polyreactivity
QVQLVESGGGLVQAGGSLRLSCDASGLIFVDNAMGWYRQAPGKERELVAAIDSGGSTNYADSVKGRFTISRDNAKNTVYLQMNSLKPEDTAVYYCAANTYYWWGIMDYWGPGTQVTVSS | low polyreactivity
QVQLVESGGGLVQAGGSLRLSCDASGLIFWRNAMGWYRQAPGKERELVAGITSGGSTYYADSVKGRFTISRDNAKNTVYLQMNCLKPEDTAVYYCAKSTWQSYYYPRGSVYWGQGTQVTVSS | high polyreactivity
QVQLVESGGGLVQAGGSLRLSCDASGLIFYYYAMGWYRQAPGKERELVAAIRWSGGSTYYADSVKGRFTISRDNAKNTVYLQMNSLKPEDTAVYYCSEFYYWGQGTQVTVSS | high polyreactivity
QVQLVESGGGLVQAGGSLRLSCDASGNIFGLNAMGWYRQAPGKERELVSAISSGGSTNYADSVKGRFTISRDNAKNTVYLQMNSLKPEDTAVYYCAVQGSRYSYCYGYRFRTMDYWGQVTQVTVSS | high polyreactivity
QVQLVESGGGLVQAGGSLRLSCDASGRIFAGYAMGWYRQAPGKERELVASINWSGGSTYYADSVKGRFTISRDNAKNTVYLQMNSLKPEDTAVYYCAKEPTYRSGEAYVGLYYWGQGTQVTVSS | high polyreactivity
QVQLVESGGGLVQAGGSLRLSCDASGRIFAYYARGWYRQAPGKERELVAAITTNGGGTYYADSVKGRFTISRDNAKNTVYLQMNSLKPEDTGVYYCNAVKQRSSIFDYWGQGTQVTVSS | low polyreactivity
QVQLVESGGGLVQAGGSLRLSCDASGRIFSRNSMGWYRQAPGKERELVAANTWRGGSTYYADSVKGRFTISRDNAKNTVYLQLNSLKPEDPAVYYCNRDYRQYGYAYSGRYYWGQGTQVTVSS | high polyreactivity
QVQLVESGGGLVQAGGSLRLSCDASGRIISYNAMGWYRQAPGKERELVAAISWGGGSTYYADSVKGRFTISRDNAKNTVYLQMNSLKPEDTAVYYCAKGWYRIKRNDYWGQGTQVTVSS | low polyreactivity
QVQLVESGGGLVQAGGSLRLSCDASGRILIGYTMGWYRQAPGKERELVARINYSGGSTYYADSVKGRFTISRDNAKNTVYLQMNSLKPEDTAVYYCDADVRRGYYTWPPRRVYYWGQGTQVTVSS | high polyreactivity
QVQLVESGGGLVQAGGSLRLSCDASGRLFYRNAMGWYRQAPGKDRELVASITSAGRTYYADSVKGRFTISRDNAKNTVYLQMNSLKPEDTAVYYCAVRGYAKSFSNAKYYYWGQGTQVTVSS | low polyreactivity
QVQLVESGGGLVQAGGSLRLSCDASGRMFALYAMGWYRQAPGKERELVAAITWRGGRTRYADSVKGRFTISRDNAKNTVYLQMTSLKPEDTAVYYCNKRLFASRYDYWGQGTQVTVSS | high polyreactivity

Sequence | polyreactivity (PSR sort gate)
QVQLVESGGGLVQAGGSLRLSCDASGRTFLYYAMGWSRQAPGKERELVAAISSGGSTNYADSVKGRFTISRDNAKNTVYLQMNSLKPEDTAVYYCNADYTSRDTSDVIYEYDYWGQGTQVTVTS | low polyreactivity
QVQLVESGGGLVQAGGSLRLSCDASGRTFPINAMGWYRQAPGKERELVAAISSGDGITYYADSVKGRFTISRDNAKNTVYLQMNSLKPEDTAVYYCAKELSQGLRYDYWGQGTQVTVSS | high polyreactivity
QVQLVESGGGLVQAGGSLRLSCDASGRTFRYNAMGWYRQAPGKERELVAAISTRGGSTYYADSVKGRFTISRDNAKNTVYLQMNSLKPEDTAVYYCAADGRYAYGYNHWGQGTQVTVSS | low polyreactivity
QVQLVESGGGLVQAGGSLRLSCDASGRTFWRYAMGWYRQAPGKERELVATISSGGSTNYADSVKGRFTISRDNAKNTVYLQMNSLKPEDTAVYYCNAEYSYYDLLAYDYWGQGTQVTVSS | low polyreactivity
QVQLVESGGGLVQAGGSLRLSCDASGRTSVIYAMGWYRQAPGKERELVASIRRGGSTSYADSVKGRFTISRDNAKNTVYLQMNSLKPEDTAVYYCASTFKSGMDYWGQGTQVTVSS | high polyreactivity
QVQLVESGGGLVQAGGSLRLSCDASGSIFDHNSMGWYRQAPGKERELVAAISSNGVRTYYADSVKGRFTISRDNAKNTVYLQMNSLKTEDTAVYYCNAQRFVGLNVYGYDYWGQGTQVTVSS | high polyreactivity
QVQLVESGGGLVQAGGSLRLSCDASGSIFGKYTMGWYRQAPGKVRELVAAISKRGGSTRYADSVKGRFTISRDNAKNTVYLQMNSLKPEDTAVYYCAAYRYWMYRYQIVNYGYWGQGTQVTVSS | high polyreactivity
QVQLVESGGGLVQAGGSLRLSCDASGSIFKLNAMGWYRQAPGKERELVAAITSSGDSTYYADSVKGRFTISRDNAKNTVYLQMNSLKPEDTAVFYCNREDAGIMDYWGQGTHVTVSS | low polyreactivity
QVQLVESGGGLVQAGGSLRLSCDASGSIFSKYAMGWYRQAPGKERELVAAISWSGTSTYYADSVKGRFTISRDNAKNTVYLQMNSLKPEDTAVYYCAASSPRSLSLLGYWGQGTQVTVSS | low polyreactivity
QVQLVESGGGLVQAGGSLRLSCDASGSILGTYALGWSRQAPGKERELVAAISSSGRTSYADSVKGRFTISRDNAKNTVYLQMNSLKPEDTAVYYCIASNYIVLINDPDAAPWLYDYWGQGTQVTVSS | low polyreactivity
QVQLVESGGGLVQAGGSLRLSCDASGSTFGWYAMGWYRQAPGKERELVAAISKNGGRTYYADSVKGRFTISRDNAKNTVYLQMNSLKPVDTAVYYCNKVSKTVRDFDYWGQGTQVTVSS | high polyreactivity
QVQLVESGGGLVQAGGSLRLSCDASGSTFNANAMGWYRQAPWKERVLVAAISWNGGRTYYADSVKGRFTISRDNAKNTVYLQMNSLKPEDTAVYYCALVYTAGRNYYYWGQGTQVTVSS | high polyreactivity
QVQLVESGGGLVQAGGSLRLSCDASGSTFPFYAMARYRQAPRKERELVAAIRNTGNTYYADSVKGSFTISRDNAKNTAYLQMNSLNPEDPAVYYCAKALRSASDYWGQGTQVTVSS | low polyreactivity
QVQLVESGGGLVQAGGSLRLSCDASGSTFVRYVMRWYRHAPGKEMELVAAISRRGGSTYYADSVKGRFTISRDNAKNTVYLQMNSLKPEDTAVYYCARTVCYRTLLESDSCGQGTQVTVSS | high polyreactivity
QVQLVESGGGLVQAGGSLRLSCDASGSTFWFNDMGWYRQAPGKERELVAAIDWSDGSTYYADSVKGRFTISRDNAKNTVYLQMNSLKPEDTAVYFCAADHRYSARRSVPTLYDYWGQGTQVTVSS | low polyreactivity
QVQLVESGGGLVQAGGSLRLSCDASGSTIYPYAMGWYRQAPGKERELVAAISSGGRTYYADSVKGRFTISRDNAKTTVYLQMNSLKPEDTAGYYCATYYYGWYTIDFYYWGQGTQVTVSS | high polyreactivity
QVQLVESGGGLVQAGGSLRLSCDDSGRTFYPYAMGRYRHAPGKERELVAAISYRGGSTYYADSVKGRFTISRDNAKNTVYLQMNCLKPEDRAVYYCAKRGYASGSKWDYGYWGQGTQLTVSS | high polyreactivity
QVQLVESGGGLVQAGGSLRLSCGASGGFFYFNAMGRYRQAPGKEREVVASITWSGGNTYYADSVKGRFTISRDNAKHTVDLQMNSLTPEDTAVYYCAADTLEYRPTYDYWGQGTQVTVSS | low polyreactivity
QVQLVESGGGLVQAGGSLRLSCGASGRIFAVNAMGWYRQARGKERELVAAITNVGSTNYADSVKGRFTISRDNAKNTVYLQMNSLKPEDTAVYYCNADLAQEDWKMDYWGLGTQVTVSS | low polyreactivity
QVQLVESGGGLVQAGGSLRLSCGASGRIFPGNAMGWYRQATGKERELVAGISFSGGRTYYADSVKGRFTISRDNAKNTVYLQMNSLTPEDSAVYYCATKYLQHWWRYDYWGQGTQVTVSS | low polyreactivity
QVQLVESGGGLVQAGGSLRLSCGASGRTFAIYVMGWYRQAPGKERELVAAISRGGSTYYADSVKGRFTISRDNAKNTVYLQMNSLKPEDTAVYYCAAGTGTTSRYYYWGQGTQVTVSS | high polyreactivity
